The record followed here is article PMC5484490.

A word on the stoichiometry N: it is the number of molecules, sites or subunits per partner or assembly.

Several values for one entry are separate records, joined by “and”; a condition that tells them apart may be missing. Identical values can stand only once.

Experiment [1] addresses wild type full length human Hsp90β with non-cleavable His6-tag (human). Briefly: SEC-MALS; SEC-MALLS on Superdex 200, 0.35 ml/min, 25 mM Na-phosphate pH 7.2, 150 mM NaCl, 5 mM DTT; 10 ul of ~29 g/l loaded; legend: 2.2 uM monomer concentration. For orientation: SEC sorts molecules by how far they enter the pores of the column.
For experiment [2] the target is unchanged. Kind of experiment: AUC; sedimentation at 42,000 rpm, 20°C, 16 hours, 7.2 uM Hsp90 in 25 Na-phosphate pH 7.2, 150 mM NaCl, 150 mM KCl, 5 mM DTT, protease inhibitor; absorbance optics; SedFit.

In the case of “wild type full length human Hsp90β with non-cleavable His6-tag (natural protein; other documents disagree on this pair)”, the stoichiometry N in experiment [1] was 2; in experiment [2], 2 and 4.
